From IntAct's records for PubMed 31515488

B1: Coiled-coil domain-containing protein 33 (Homo sapiens), Q8N5R6-5 (parent)
chain: MGEPGPPSPPAPKAAPGLIDSFSEMNNYRRAMQKMAEDILSLRRQASILEGENRILRSRLAQQEEEEGQGKASEAQNTVSMKQKLLLSELDMKKLRDRVQHLQNELIRKNDREKELLLLYQAQQPQAALLKQYQGKLQKMKALEETVRHQEKVIEKMERVLEDRLQDRSKPPPLNRQQGKPYTGFPMLSASGLPLGSMGENLPVELYSVLLAENAKLRTELDKNRHQQAPIILQQQALPVDPGELGAGGDLTERLQETHGPGHSECTETLPAQDLLSGTSDKFNLLAKLEHAQSRILSLESQLEDSARRWGREKQDLATRLQEQEKGFRHPSNSIIIEQPVSDPPGVAPRGSGGGAGSHRTPKVTGP
B2: "Bile acid-CoA:amino acid N-acyltransferase" (Homo sapiens), Q14032 (parent)
chain: MIQLTATPVSALVDEPVHIRATGLIPFQMVSFQASLEDENGDMFYSQAHYRANEFGEVDLNHASSLGGDYMGVHPMGLFWSLKPEKLLTRLLKRDVMNRPFQVQVKLYDLELIVNNKVASAPKASLTLERWYVAPGVTRIKVREGRLRGALFLPPGEGLFPGVIDLFGGLGGLLEFRASLLASRGFASLALAYHNYEDLPRKPEVTDLEYFEEAANFLLRHPKVFGSGVGVVSVCQGVQIGLSMAIYLKQVTATVLINGTNFPFGIPQVYHGQIHQPLPHSAQLISTNALGLLELYRTFETTQVGASQYLFPIEEAQGQFLFIVGEGDKTINSKAHAEQAIGQLKRHGKNNWTLLSYPGAGHLIEPPYSPLCCASTTHDLRLHWGGEVIPHAAAQEHAWKEIQRFLRKHLIPDVTSQL
B3: 60 kDa heat shock protein, mitochondrial (Homo sapiens), P10809 (parent)
chain: MLRLPTVFRQMRPVSRVLAPHLTRAYAKDVKFGADARALMLQGVDLLADAVAVTMGPKGRTVIIEQSWGSPKVTKDGVTVAKSIDLKDKYKNIGAKLVQDVANNTNEEAGDGTTTATVLARSIAKEGFEKISKGANPVEIRRGVMLAVDAVIAELKKQSKPVTTPEEIAQVATISANGDKEIGNIISDAMKKVGRKGVITVKDGKTLNDELEIIEGMKFDRGYISPYFINTSKGQKCEFQDAYVLLSEKKISSIQSIVPALEIANAHRKPLVIIAEDVDGEALSTLVLNRLKVGLQVVAVKAPGFGDNRKNQLKDMAIATGGAVFGEEGLTLNLEDVQPHDLGKVGEVIVTKDDAMLLKGKGDKAQIEKRIQEIIEQLDVTTSEYEKEKLNERLAKLSDGVAVLKVGGTSDVEVNEKKDRVTDALNATRAAVEEGIVLGGGCALLRCIPALDSLTPANEDQKIGIEIIKRTLKIPAMTIAKNAGVEGSLIVEKIMQSSSEVGYDAMAGDFVNMVEKGIIDPTKVVRTALLDAAGVASLLTTAEVVVTEIPKEEKDPGMGAMGGMGGGMGGGMF
partner: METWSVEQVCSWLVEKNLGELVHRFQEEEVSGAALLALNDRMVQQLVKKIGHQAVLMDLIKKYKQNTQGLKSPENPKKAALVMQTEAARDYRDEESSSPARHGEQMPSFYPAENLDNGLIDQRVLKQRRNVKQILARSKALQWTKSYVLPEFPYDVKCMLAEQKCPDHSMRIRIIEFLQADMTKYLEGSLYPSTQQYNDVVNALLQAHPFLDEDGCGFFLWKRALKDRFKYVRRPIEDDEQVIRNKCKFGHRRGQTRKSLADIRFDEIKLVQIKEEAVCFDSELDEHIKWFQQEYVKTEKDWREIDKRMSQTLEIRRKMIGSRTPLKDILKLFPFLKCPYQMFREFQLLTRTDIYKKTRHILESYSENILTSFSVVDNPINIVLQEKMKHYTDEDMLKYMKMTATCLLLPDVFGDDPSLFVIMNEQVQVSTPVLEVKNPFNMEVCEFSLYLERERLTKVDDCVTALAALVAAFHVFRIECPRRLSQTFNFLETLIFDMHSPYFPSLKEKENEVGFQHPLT
B4: E3 ubiquitin-protein ligase RNF8 (Homo sapiens), O76064 (parent)
chain: MGEPGFFVTGDRAGGRSWCLRRVGMSAGWLLLEDGCEVTVGRGFGVTYQLVSKICPLMISRNHCVLKQNPEGQWTIMDNKSLNGVWLNRARLEPLRVYSIHQGDYIQLGVPLENKENAEYEYEVTEEDWETIYPCLSPKNDQMIEKNKELRTKRKFSLDELAGPGAEGPSNLKSKINKVSCESGQPVKSQGKGEVASTPSDNLDPKLTALEPSKTTGAPIYPGFPKVTEVHHEQKASNSSASQRSLQMFKVTMSRILRLKIQMQEKHEAVMNVKKQTQKGNSKKVVQMEQELQDLQSQLCAEQAQQQARVEQLEKTFQEEEQHLQGLEIAQGEKDLKQQLAQALQEHWALMEELNRSKKDFEAIIQAKNKELEQTKEEKEKMQAQKEEVLSHMNDVLENELQCIICSEYFIEAVTLNCAHSFCSYCINEWMKRKIECPICRKDIKSKTYSLVLDNCINKMVNNLSSEVKERRIVLIRERKAKRLF
partner: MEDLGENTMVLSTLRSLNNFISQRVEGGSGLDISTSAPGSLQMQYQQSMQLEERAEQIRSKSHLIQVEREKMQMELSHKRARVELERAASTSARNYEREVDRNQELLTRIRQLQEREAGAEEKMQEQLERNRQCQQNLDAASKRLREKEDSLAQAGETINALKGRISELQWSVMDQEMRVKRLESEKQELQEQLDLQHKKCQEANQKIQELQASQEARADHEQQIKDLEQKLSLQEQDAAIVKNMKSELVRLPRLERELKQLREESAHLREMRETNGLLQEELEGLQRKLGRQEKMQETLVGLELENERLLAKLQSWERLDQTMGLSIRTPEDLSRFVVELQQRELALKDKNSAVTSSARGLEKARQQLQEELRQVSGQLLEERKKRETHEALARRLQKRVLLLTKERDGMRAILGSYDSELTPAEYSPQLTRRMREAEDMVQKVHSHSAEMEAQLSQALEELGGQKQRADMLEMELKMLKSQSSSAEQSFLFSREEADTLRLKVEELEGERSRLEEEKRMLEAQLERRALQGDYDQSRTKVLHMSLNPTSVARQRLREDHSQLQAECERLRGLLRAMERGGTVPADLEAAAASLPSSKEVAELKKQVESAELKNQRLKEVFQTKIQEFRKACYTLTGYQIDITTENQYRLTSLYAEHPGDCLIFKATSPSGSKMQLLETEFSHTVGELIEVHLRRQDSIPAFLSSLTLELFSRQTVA
B5: Translation initiation factor eIF2B subunit beta (Homo sapiens), P49770 (parent)
chain: MPGSAAKGSELSERIESFVETLKRGGGPRSSEEMARETLGLLRQIITDHRWSNAGELMELIRREGRRMTAAQPSETTVGNMVRRVLKIIREEYGRLHGRSDESDQQESLHKLLTSGGLNEDFSFHYAQLQSNIIEAINELLVELEGTMENIAAQALEHIHSNEVIMTIGFSRTVEAFLKEAARKRKFHVIVAECAPFCQGHEMAVNLSKAGIETTVMTDAAIFAVMSRVNKVIIGTKTILANGALRAVTGTHTLALAAKHHSTPLIVCAPMFKLSPQFPNEEDSFHKFVAPEEVLPFTEGDILEKVSVHCPVFDYVPPELITLFISNIGGNAPSYIYRLMSELYHPDDHVL
B6: Heterogeneous nuclear ribonucleoprotein R (Homo sapiens), O43390 (parent)
chain: MANQVNGNAVQLKEEEEPMDTSSVTHTEHYKTLIEAGLPQKVAERLDEIFQTGLVAYVDLDERAIDALREFNEEGALSVLQQFKESDLSHVQNKSAFLCGVMKTYRQREKQGSKVQESTKGPDEAKIKALLERTGYTLDVTTGQRKYGGPPPDSVYSGVQPGIGTEVFVGKIPRDLYEDELVPLFEKAGPIWDLRLMMDPLSGQNRGYAFITFCGKEAAQEAVKLCDSYEIRPGKHLGVCISVANNRLFVGSIPKNKTKENILEEFSKVTEGLVDVILYHQPDDKKKNRGFCFLEYEDHKSAAQARRRLMSGKVKVWGNVVTVEWADPVEEPDPEVMAKVKVLFVRNLATTVTEEILEKSFSEFGKLERVKKLKDYAFVHFEDRGAAVKAMDEMNGKEIEGEEIEIVLAKPPDKKRKERQAARQASRSTAYEDYYYHPPPRMPPPIRGRGRGGGRGGYGYPPDYYGYEDYYDDYYGYDYHDYRGGYEDPYYGYDDGYAVRGRGGGRGGRGAPPPPRGRGAPPPRGRAGYSQRGAPLGPPRGSRGGRGGPAQQQRGRGSRGSRGNRGGNVGGKRKADGYNQPDSKRRQTNNQQNWGSQPIAQQPLQQGGDYSGNYGYNNDNQEFYQDTYGQQWK

Variants of: B1
Settings: with smad3_human SMAD3, P84022

| Variant | effect of a mutation on the interaction |
| --- | --- |
| G196R | with no effect |
| P203L | disrupting interaction strength |
| M25V | with no effect |

Variants of: B1
Settings: with aakb2_human PRKAB2, O43741

| Variant | effect of a mutation on the interaction |
| --- | --- |
| G196R | with no effect |
| P203L | with no effect |
| M25V | with no effect |

Variants of: B1
Settings: with blk_human BLK

| Variant | effect of a mutation on the interaction |
| --- | --- |
| G196R | with no effect |
| P203L | with no effect |
| M25V | with no effect |

Variants of: B2
Settings: with fhl3_human FHL3, Q13643

| Variant | effect of a mutation on the interaction |
| --- | --- |
| MIQLTATPVSALVDEPVHIRATGLIPFQMVSFQASLEDENGDMFYSQAHYRANEFGEVDLNHASSLGGDYMGVHPMGLFWSLKPEKLLTRLLKRDVMNRPFQVQVKLYDLELIVNNKVASAPKASLTLERWYVAPGVTRIKVREGRLRGALFLPPGEGLFPGVIDLFGGLGGLLEFRASLLSSRGFASLALAYHNYEDLPRKPEVTDLEYFEEAANFLLRHPKVFGSGVGVVSVCQGVQIGLSMAIYLKQVTATVLINGTNFPFGIPQVYHGQIHQPLPHSAQLISTNALGLLELYRTFETTQVGASQYLFPIEEAQGQFLFIVGEGDKTINSKAHAEQAIGQLKRHGKNNWTLLSYPGAGHLIEPPYSPLCCASTTHDLRLHWGGEVIPHAAAQEHAWKEIQRFLRKHLIPDVTSQL [A182S] | with no effect |

Variants of: B2
Settings: with FBP1, P09467

| Variant | effect of a mutation on the interaction |
| --- | --- |
| MIQLTATPVSALVDEPVHIRATGLIPFQMVSFQASLEDENGDMFYSQAHYRANEFGEVDLNHASSLGGDYMGVHPMGLFWSLKPEKLLTRLLKRDVMNRPFQVQVKLYDLELIVNNKVASAPKASLTLERWYVAPGVTRIKVREGRLRGALFLPPGEGLFPGVIDLFGGLGGLLEFRASLLASRGFASLALAYHNYEDLPPKPEVTDLEYFEEAANFLLRHPKVFGSGVGVVSVCQGVQIGLSMAIYLKQVTATVLINGTNFPFGIPQVYHGQIHQPLPHSAQLISTNALGLLELYRTFETTQVGASQYLFPIEEAQGQFLFIVGEGDKTINSKAHAEQAIGQLKRHGKNNWTLLSYPGAGHLIEPPYSPLCCASTTHDLRLHWGGEVIPHAAAQEHAWKEIQRFLRKHLIPDVTSQL [R201P] | with no effect |
| MIQLTATPVSALVDEPVHIRATGLIPFQMVSFQASLEDENGDMFYSQAHYRANEFGEVDLNHASSLGGDYMGVHPMGLFWSLKPEKLLTRLLKRDVMNRPFQVQVKLYDLELIVNNKVASAPKASLTLERWYVAPGVTRIKVREGRLRGALFLPPGEGLFPGVIDLFGGLGGLLEFRASLLASRGFASLALAYHNYEDLPRKPEVTDLEYFEEAANFLLRHPKVFGSGVGVVSVCQGVQIGLSMAIYLKQVTATVLINGTNFPFGIPQVYHGQIHQPLPHSAQLISTNALGLLELYRTFETTQAGASQYLFPIEEAQGQFLFIVGEGDKTINSKAHAEQAIGQLKRHGKNNWTLLSYPGAGHLIEPPYSPLCCASTTHDLRLHWGGEVIPHAAAQEHAWKEIQRFLRKHLIPDVTSQL [V304A] | with no effect |

Variants of: B3
Settings: with samd3_human SAMD3, Q8N6K7

| Variant | effect of a mutation on the interaction |
| --- | --- |
| R142K | disrupting interaction strength |

Variants of: B4
Settings: with md1l1_human MAD1L1, Q9Y6D9

| Variant | effect of a mutation on the interaction |
| --- | --- |
| MGEPGFFVTGDRAGGRSWCLRRVGMSAGWLLLEDGCEVTVGRGFGVTYQLVSKICPLMISRNHCVLKQNPEGQWTIMDNKSLNGVWLNRARLEPLRVYSIHQGDYIQLGVPLENKENAEYEYEVTEEDWETIYPCLSPKNDQMIEKNKELRTKRKFSLDELAGPGAEGPSNLKSKINKVSCESGQPVKSQGKGEVASTPSDNLDPKLTALEPSKTTGAPIYPGFPKVTEVHHEQKASNSSASQRSLQMFKVTMSRILRLKIQMQEKHEAVMNVKKQTQKGNSKKVVQMEQELQDLQSQLCAEQAQQQARLEQLEKTFQEEEQHLQGLEIAQGEKDLKQQLAQALQEHWALMEELNRSKKDFEAIIQAKNKELEQTKEEKEKMQAQKEEVLSHMNDVLENELQCIICSEYFIEAVTLNCAHSFCSYCINEWMKRKIECPICRKDIKSKTYSLVLDNCINKMVNNLSSEVKERRIVLIRERKAKRLF [V310L] | with no effect |

Variants of: B5
Settings: with ei2bd_human EIF2B4, Q9UI10

| Variant | effect of a mutation on the interaction |
| --- | --- |
| MPGSAAKGSELSERIESFVETLKRGGGPRSSEEMARETLGLLRQIITDHRWSNAGELMELIRREGRRMTAAQPSETTVGNMVRRVLKIIREEYGRLHGRSDESDQQESLHKLLTSGGLNEDFSFHYVQLQSNIIEAINELLVELEGTMENIAAQALEHIHSNEVIMTIGFSRTVEAFLKEAARKRKFHVIVAECAPFCQGHEMAVNLSKAGIETTVMTDAAIFAVMSRVNKVIIGTKTILANGALRAVTGTHTLALAAKHHSTPLIVCAPMFKLSPQFPNEEDSFHKFVAPEEVLPFTEGDILEKVSVHCPVFDYVPPELITLFISNIGGNAPSYIYRLMSELYHPDDHVL [A127V] | with no effect |

Variants of: B6
Settings: with anm1_human PRMT1, Q99873

| Variant | effect of a mutation on the interaction |
| --- | --- |
| S530T | with no effect |
